Laboratory results from publication PMC9251887.

Target: GFP-Joka2 (tomato (SlJoka2))
Experiment: FRET or BRET; FRET-FLIM in N. benthamiana leaves; donor GFP-Joka2, acceptors RFP fusions; GFP lifetime measured in GFP-JOKA2 aggregates

With RFP-XopL (natural protein) the reduction of the donor's fluorescence lifetime was 0.1 ns.
